# Laboratory results reported in patent US20130178394A1 (UNIVERSITY OF TOKYO, published 2013).
# Bridge positions count the residues as written; N and C are the ends. Square brackets hold non-standard residues; d marks the D form. NMeF = CN[C@@H](Cc1ccccc1)C(=O)O; NMeS = CN[C@@H](CO)C(=O)O; Sar = CNCC(=O)O
# B1: MCP11, Cyclo(-Ac-DWCDVMeSGRMeFMeGYMeFPC)G-OH (chemically synthesized cyclic N-methyl peptide) (peptide)
# peptide: {CH2CO}-[dW]CDV[NMeS]GR[NMeF][Sar]Y[NMeF]PCG-OH
# modifications: thioether N-13
# notes: The formula stands in the summary (h-0009)
# Target: T1, biotinylated Avi-His-GB1-E6AP-HECT domain (human, UniProt P06654 228-282; Q05086 495-852, limits assumed, biotin on the Avi tag)
# T1 construct: domain: Protein GB1 domain;domain: HECT domain; also called C terminal domain of ubiquitin ligase E6AP
# Assay: SPR, BIACORE T100, Avi-His-GB1-E6AP-HECT on streptavidin chip, peptide as analyte
# Method: The binding constant of MCP11 to E6AP-HECT was analyzed by a surface plasmon resonance using BIACORE T100.
# A streptavidin sensor chip (SA chip certified) was used as a sensor chip, an Avi-His-GB1-E6AP-HECT was used as a ligand, and MCP11 was used as an analyte.
# T1 sequence (P06654 228-282, tags or fused parts left off): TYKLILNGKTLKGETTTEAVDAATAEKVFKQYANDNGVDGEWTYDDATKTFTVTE
binder,measurement,value
B1,Kd,0.5 nM
